Measured values taken from patent US20240279281A1, “Peptide Inhibitors of Interleukin-23 Receptor” (Janssen Pharmaceutica NV, priority 2023, published 2024).
Starred links: 1 amine or outer side, 2 acyl side, 3 side chain; linkers in the order of their positions; H or OH if unused. Positions of bridges follow the written chain, without caps; N, C: chain ends. Non-standard residues stand in square brackets, D forms with d. No end group written: not given here. X10 = 2‑amino‑3‑(4-(2-guanidinoethoxy)phenyl)propanoic acid, N=C(N)NCCOc1ccc(CC(N[*:1])C(=O)[*:2])cc1; X7 = 2‑amino‑3‑(5-methylpyridin-3-yl)propanoic acid, Cc1cncc(CC(N[*:1])C(=O)[*:2])c1; Trp(7-(3-AcNH-Ph)) = CC(=O)Nc1cccc(-c2cccc3c(C[C@H](N)C(=O)O)c[nH]c23)c1; 2Nal(6-OH) = N[C@@H](Cc1ccc2cc(O)ccc2c1)C(=O)O; Trp(7-Me) = Cc1cccc2c(C[C@H](N)C(=O)O)c[nH]c12; dLys(Me3) = C[N+](C)(C)CCCC[C@@H](N)C(=O)O; 3Pal(5-Me) = Cc1cncc(C[C@H](N)C(=O)O)c1; AEF = NCCOc1ccc(C[C@H](N)C(=O)O)cc1; αMeF = C[C@](N)(Cc1ccccc1)C(=O)O; 3Pal = N[C@@H](Cc1cccnc1)C(=O)O; Pen = CC(C)(S)[C@H](N)C(=O)O; dDab = NCC[C@@H](N)C(=O)O; αMeC = C[C@](N)(CS)C(=O)O; Thp = NC1(C(=O)O)CCOCC1; Abu = CC[C@H](N)C(=O)O; Ahp = NCCCCCCC(=O)O; Sar = CNCC(=O)O

T1: interleukin-23 receptor (IL-23R), Q5VWK5
T1 chain: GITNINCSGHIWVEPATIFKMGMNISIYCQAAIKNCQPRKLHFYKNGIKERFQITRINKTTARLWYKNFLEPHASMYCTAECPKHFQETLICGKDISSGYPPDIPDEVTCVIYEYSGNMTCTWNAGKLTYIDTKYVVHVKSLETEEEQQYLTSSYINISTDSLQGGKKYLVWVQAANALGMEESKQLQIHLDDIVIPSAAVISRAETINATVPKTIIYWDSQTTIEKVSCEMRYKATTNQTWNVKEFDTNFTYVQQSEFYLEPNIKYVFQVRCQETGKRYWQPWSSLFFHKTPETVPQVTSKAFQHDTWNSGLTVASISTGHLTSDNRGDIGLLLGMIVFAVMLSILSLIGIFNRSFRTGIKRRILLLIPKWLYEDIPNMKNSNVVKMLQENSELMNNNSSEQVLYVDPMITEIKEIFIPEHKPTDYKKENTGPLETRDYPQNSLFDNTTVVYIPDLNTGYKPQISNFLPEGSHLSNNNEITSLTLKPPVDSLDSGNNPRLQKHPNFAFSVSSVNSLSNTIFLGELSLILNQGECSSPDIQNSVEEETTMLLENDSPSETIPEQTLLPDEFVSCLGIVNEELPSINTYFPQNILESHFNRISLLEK


Target: T1, interleukin-23 receptor (IL-23R), Q5VWK5
Assay: cell-based or functional assay

IL23R Reporter Assay IC50 [nM] | PBMC pSTAT3 IC50 [nM] | Binder
> 100 | < 1 | [Ahp][Pen]NT[Trp(7-Me)]K(Ac)[Pen][2‑amino‑3‑(4-(2-aminoethoxy)phenyl)propanoic acid][2‑amino‑3‑(6-hydroxynaphthalen-2-yl)propanoic acid][Thp]EN[3Pal][Sar] (disulfide 2-7 (inferred); ends not checked) [SEQ ID NO: 447]
< 10 | < 0.1 | R[Abu]NTWK(Ac)[αMeC][X10][2Nal(6-OH)][Thp]K(Ac)N[3Pal][Sar] (ends and bridges not checked) [SEQ ID NO: 7]
< 10 | < 0.01 | [Pen]ET[Trp(7-Me)][N,N,N‑trimethylhomolysine][Pen][2‑amino‑3‑(4-(2-(methylamino)ethoxy)phenyl)propanoic acid][2‑amino‑3‑(6-hydroxynaphthalen-2-yl)propanoic acid][Thp]EN[3Pal][Sar] (not fully specified (bridges); ends and bridges not checked) [SEQ ID NO: 382]
< 10 | < 0.01 | [Pen]ET[Trp(7-Me)]K(Ac)[Pen][AEF][2Nal(6-OH)][Thp]EN[3Pal][Sar] (not fully specified (bridges); ends and bridges not checked) [SEQ ID NO: 397]
> 100 | > 1 | R[Pen]NT[Trp(7-Me)]K(Ac)[Pen][2‑amino‑3‑(4-(2-aminoethoxy)phenyl)propanoic acid][2‑amino‑3‑(5-methoxynaphthalen-2-yl)propanoic acid][Thp]EN[αMeF] (disulfide 2-7 (inferred); ends not checked) [SEQ ID NO: 437]
< 10 |  | R[Pen]NT[Trp(7-Me)]K(Ac)[Pen][5‑(4-(2-amino-2-carboxyethyl)phenoxy)‑N,N,N‑trimethylpentan‑1‑aminium][2‑amino‑3‑(6-hydroxynaphthalen-2-yl)propanoic acid][Thp]EN[X7][Sar] (disulfide 2-7 (inferred); ends not checked) [SEQ ID NO: 48]
> 100 | < 1 | R[Pen]NT[Trp(7-Me)]K(Ac)[Pen][2‑amino‑3‑(4-(2-aminoethoxy)phenyl)propanoic acid][2‑amino‑3‑(5-carbamoylnaphthalen-2-yl)propanoic acid][Thp]EN[αMeF] (disulfide 2-7 (inferred); ends not checked) [SEQ ID NO: 439]
> 100 | > 1 | R[Pen]NT[Trp(7-Me)]K(Ac)[Pen][2‑amino‑3‑(4-(2-aminoethoxy)phenyl)propanoic acid][2‑amino‑3‑(5-methylnaphthalen-2-yl)propanoic acid][Thp]EN[αMeF] (disulfide 2-7 (inferred); ends not checked) [SEQ ID NO: 445]
< 10 |  | R[Pen]NT[Trp(7-Me)]K(Ac)[Pen][AEF][2Nal(6-OH)][Thp]EN[3Pal(5-Me)][Sar] (disulfide 2-7 (inferred); ends not checked) [SEQ ID NO: 52]
> 100 | > 1 | R[Pen]NT[Trp(7-Me)]K(Ac)[Pen][2‑amino‑3‑(4-(2-aminoethoxy)phenyl)propanoic acid][2‑amino‑3‑(6-hydroxynaphthalen-2-yl)propanoic acid][Thp]ENA[Sar] (not fully specified (bridges); ends and bridges not checked) [SEQ ID NO: 429]

More lines, now with the values behind:

Binder | IL23R Reporter Assay IC50 [nM] | PBMC pSTAT3 IC50 [nM]
R[Pen]NT[Trp(7-Me)]K(Ac)[Pen][2‑amino‑3‑(4-(2-aminoethoxy)phenyl)propanoic acid][2‑amino‑3‑(6-(2-hydroxyphenyl)naphthalen-2-yl)propanoic acid][Thp]EN[Thp] (not fully specified (bridges); ends and bridges not checked) [SEQ ID NO: 431] | > 100 | > 1
R[Pen]NT[Trp(7-Me)]K(Ac)[Pen][AEF][2Nal(6-OH)][Thp]EN[3Pal(5-Me)][Sar] (disulfide 2-7 (inferred); ends not checked) [SEQ ID NO: 51] | < 10 | 
R[Pen]NT[Trp(7-Me)]K(Ac)[Pen][2‑amino‑3‑(4-(2-aminoethoxy)phenyl)propanoic acid][2‑amino‑3‑(6-hydroxynaphthalen-2-yl)propanoic acid][Thp]EN[2‑amino‑3‑(5-carbamoylpyridin-3-yl)propanoic acid][Sar] (disulfide 2-7 (inferred); ends not checked) [SEQ ID NO: 441] | < 10 | < 0.1
[dDab](Ac)[Abu]NTWQC[AEF][2Nal(6-OH)][Thp]CN[3Pal][Sar] (not fully specified (bridges); ends and bridges not checked) [SEQ ID NO: 413] | < 10 | < 0.1
R[Pen]NT[Trp(7-Me)]K(Ac)[Pen][2‑amino‑3‑(4-(2-aminoethoxy)phenyl)propanoic acid][2‑amino‑3‑(6-hydroxynaphthalen-2-yl)propanoic acid][Thp]K(Ac)N[X7][Sar] (disulfide 2-7 (inferred); ends not checked) [SEQ ID NO: 49] | < 10 | 
R[Abu]NT[Trp(7-(3-AcNH-Ph))]K(Ac)[αMeC][AEF][2Nal(6-OH)][Thp]EN[3Pal][Sar] (ends and bridges not checked) [SEQ ID NO: 6] | < 10 | < 0.1
[Ahp][Pen]NT[Trp(7-Me)]K(Ac)[Pen][AEF][2Nal(6-OH)][Thp]EN[3Pal][Sar] (not fully specified (bridges); ends and bridges not checked) [SEQ ID NO: 417] | < 10 | < 0.01
R[Pen]QTWQ[Pen][2‑amino‑3‑(4-(2-aminoethoxy)phenyl)propanoic acid][2‑amino‑3‑(6-hydroxynaphthalen-2-yl)propanoic acid][Thp]EN[Thp] (not fully specified (bridges); ends and bridges not checked) [SEQ ID NO: 430] | > 100 | > 1
R[Pen]ET[Trp(7-Me)]K(Ac)[Pen][AEF][2Nal(6-OH)][Thp]K(Ac)N[3Pal][Sar] (not fully specified (bridges); ends and bridges not checked) [SEQ ID NO: 422] | < 10 | < 0.01
[dK](Me3)[Pen]NT[Trp(7-Me)]K(Ac)[Pen][2‑amino‑3‑(4-(2-aminoethoxy)phenyl)propanoic acid][2‑amino‑3‑(6-hydroxynaphthalen-2-yl)propanoic acid][Thp]EN[X7][Sar] (disulfide 2-7 (inferred); ends not checked) [SEQ ID NO: 50] | < 10 | 
R[Pen]NT[Trp(7-Me)]K(Ac)[Pen][AEF][2Nal(6-OH)][Thp]KN[3Pal][Sar] (not fully specified (residue 11, bridges); ends and bridges not checked; also: K11: lipidated lysine) [SEQ ID NO: 424] | > 100 | < 1
R[Pen]NT[Trp(7-(3-AcNH-Ph))]K(Ac)[Pen][AEF][2Nal(6-OH)][Thp]EN[3Pal(5-Me)][Sar] (disulfide 2-7 (inferred); ends not checked) [SEQ ID NO: 53] | < 10 | 
[dLys(Me3)][Pen]NT[Trp(7-Me)]K(Ac)[Pen][2‑amino‑3‑(4-(2-aminoethoxy)phenyl)propanoic acid][2‑amino‑3‑(6-hydroxynaphthalen-2-yl)propanoic acid][Thp]EN[3Pal][Sar] (not fully specified (bridges); ends and bridges not checked) [SEQ ID NO: 388] | < 10 | < 0.01
